Assay results as given in patent US20200087405A1 (UNIVERSITY OF SASKATCHEWAN, published 2020).
Positions count from the first letter of the chain named. Each block holds one binder with its values, some of them ahead of it.

Key:
[1] = biological target: T1, Fc-tagged extracellular domain (ECD) of the recombinant human EGFR (rhEGFR) (human, UniProt P00533 25-645); assay: ELISA: biotinylated EGF on immobilized EGFR, with or without pre-incubation with unlabeled EGF
T1 construct: extracellular domain; also called rhEGFR-ECD; rhEGFR-ECD-Fc; not shown: Fc tag of the bought protein (R&D 344-ER)

[2] = biological target: T2, Fc-tagged ECD of ErbB2 (ErbB family member, R&D 1129-ER) (human, UniProt P04626 23-652); assay: ELISA on immobilized Fc-tagged ErbB ECDs
T2 construct: extracellular domain; not shown: Fc tag of the bought protein

[3] = biological target: T3, Fc-tagged ECD of ErbB3 (R&D 348-RB) (human, UniProt P21860 20-643); assay: ELISA on immobilized Fc-tagged ErbB ECDs
T3 construct: extracellular domain; also called ErbB family member; not shown: Fc tag of the bought protein

[4] = biological target: T4, Fc-tagged ECD of ErbB4 (ErbB family member, R&D 1131-ER) (human, UniProt Q15303 26-651); assay: ELISA on immobilized Fc-tagged ErbB ECDs
T4 construct: extracellular domain; not shown: Fc tag of the bought protein
T4 sequence (looked up): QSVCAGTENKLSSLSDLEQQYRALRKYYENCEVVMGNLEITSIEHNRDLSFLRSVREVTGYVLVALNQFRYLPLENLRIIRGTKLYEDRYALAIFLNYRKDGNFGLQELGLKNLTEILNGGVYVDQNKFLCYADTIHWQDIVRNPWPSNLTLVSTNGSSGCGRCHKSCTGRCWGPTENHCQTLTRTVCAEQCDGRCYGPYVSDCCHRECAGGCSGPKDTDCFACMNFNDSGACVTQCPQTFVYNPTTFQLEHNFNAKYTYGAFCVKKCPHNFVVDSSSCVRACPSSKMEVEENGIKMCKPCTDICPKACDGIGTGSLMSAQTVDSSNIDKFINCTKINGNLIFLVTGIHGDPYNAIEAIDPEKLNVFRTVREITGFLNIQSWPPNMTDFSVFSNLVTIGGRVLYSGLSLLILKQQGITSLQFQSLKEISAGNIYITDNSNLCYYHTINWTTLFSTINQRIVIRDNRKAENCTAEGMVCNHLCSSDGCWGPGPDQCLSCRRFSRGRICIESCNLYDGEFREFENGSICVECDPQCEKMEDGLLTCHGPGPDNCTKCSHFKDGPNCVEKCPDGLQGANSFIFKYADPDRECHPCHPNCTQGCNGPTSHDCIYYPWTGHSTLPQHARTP

[5] = biological target: T5, EGFR-D28 on HEK293F cells (UniProt P00533 25-1210); assay: flow cytometry dose response on transfected HEK293F cells
T5 construct: whole, on cells; also called EGFR-28; not shown: C-terminal GFP of the parent EGFR-GFP construct

[6] = biological target: T6, EGFR-DM (Y251A/R285S) on HEK293F cells (UniProt P00533 25-1210); assay: as above
T6 construct: whole, on cells; not shown: C-terminal GFP of the parent EGFR-GFP construct

[7] = biological target: T7, full-length EGFR with a C-terminal GFP fusion (EGFR-GFP) on HEK293F cells (UniProt P00533 25-1210); assay: flow cytometry dose response on EGFR-293F cells
T7 construct: whole, on cells; also called EGFR (HEK293F transfected); not shown: C-terminal GFP fusion

[8] = biological target: T8, cell-surface EGFR (endogenous on A431, MDA-MB-231 and other cancer cell lines); pBABE-EGFR transfected 293T … (UniProt P00533 25-1210, limits assumed); assay: flow cytometry dose response on A431 cells, without EGF
T8 construct: whole, on cells; Untagged EGFR on cells; also called endogenous cell-surface EGFR; EGFR1

[9] = biological target: T7, full-length EGFR with a C-terminal GFP …; assay: flow cytometry on HEK293F cells transiently expressing EGFR
[10] = biological target: T1, Fc-tagged extracellular domain (ECD) of …; assay: biolayer interferometry, Fab immobilized, rhEGFR-ECD-Fc in solution, 1:1 model
[11] = biological target: T6, EGFR-DM (Y251A/R285S) on HEK293F cells; assay: flow cytometry on HEK293F cells transiently expressing EGFR-DM
[12] = biological target: T5, EGFR-D28 on HEK293F cells; assay: flow cytometry on HEK293F cells transiently expressing EGFR-D28
[13] = biological target: T8, cell-surface EGFR (endogenous on A431, …); assay: flow cytometry dose response on A431 cells after incubation with 10 nM EGF
[14] = biological target: T1, Fc-tagged extracellular domain (ECD) of …; assay: biolayer interferometry, Fab immobilized, rhEGFR in solution, 1:1 global fit
[15] = biological target: T9, EGFR fragment D3-D4 on HEK293F cells (UniProt P00533 334-645, limits assumed); assay: flow cytometry heat map of relative binding, 293F cells expressing EGFR EC domains
T9 construct: domain: D3-D4

[16] = biological target: T10, EGFR fragment D2-D3-D4 on HEK293F cells (UniProt P00533 190-645, limits assumed); assay: as above
T10 construct: domain: D2-D3-D4

[17] = biological target: T11, EGFR-vIII on HEK293F cells (UniProt P00533 25-1210); assay: flow cytometry, HEK293F cells transiently expressing EGFR-vIII against cells expressing GFP
T11 construct: whole, on cells

[18] = biological target: T1, Fc-tagged extracellular domain (ECD) of …; assay: competitive phage ELISA with soluble rhEGFR as competitor, phage-displayed Fab
[19] = biological target: T1, Fc-tagged extracellular domain (ECD) of …; assay: competitive phage ELISA with soluble rhEGFR as competitor, phage-displayed Fab; affinity-matured clone Fab 8708
[20] = biological target: T1, Fc-tagged extracellular domain (ECD) of …; assay: multi-point competitive ELISA: soluble EGFR competes with immobilized EGFR for Clone 24
[21] = biological target: T1, Fc-tagged extracellular domain (ECD) of …; assay: multi-point competitive ELISA: soluble EGFR competes with immobilized EGFR for Clone 23

- binding result [2]: no binding
- binding result [3]: no binding
- binding result [4]: no binding
- fold change of EC50 against EGFR [5]: < 3 fold
- fold change of EC50 against EGFR [6]: < 3 fold
- EC50 (read off the curve) [7]: ~0.6 nM
- EC50 (read off the curve) [8]: ~0.6 nM
- EC50 [9]: 0.6 nM
- fold faster off-rate than Fab 8708 [10]: 3 fold
- fold faster on-rate than Fab 8708 [10]: 18 fold
- EC50 [11]: 1.4 nM
- EC50 [12]: 1.4 nM
- EC50 (read off the curve) [13]: ~3 nM
- Kd [14]: 1.4 nM
- koff [14]: 0.00017 s⁻¹
- kon [14]: 130000 M⁻¹ s⁻¹
- binding result [15]: no binding
- binding result [16]: no binding
- binding result [17]: no binding (tested: 200 nM)
B2: Fab 8709 (Fab H) (Fab)
heavy: EVQLVESGGGLVQPGGSLRLSCAASGFNLYSSSMHWVRQAPGKGLEWVASIYPYSGYTYYADSVKGRFTISADTSKNTAYLQMNSLRAEDTAVYYCARYPFGVSAYYAMDYWGQGTLVTVSSASTKGPSVFPLAPSSKSTSGGTAALGCLVKDYFPEPVTVSWNSGALTSGVHTFPAVLQSSGLYSLSSVVTVPSSSLGTQTYICNVNHKPSNTKVDKKVEPKSCDKTHT
light: DIQMTQSPSSLSASVGDRVTITCRASQSVSSAVAWYQQKPGKAPKLLIYSASSLYSGVPSRFSGSRSGTDFTLTISSLQPEDFATYYCQQSYWLITFGQGTKVEIKRTVAAPSVFIFPPSDSQLKSGTASVVCLLNNFYPREAKVQWKVDNALQSGNSQESVTEQDSKDSTYSLSSTLTLSKADYEKHKVYACEVTHQGLSSPVTKSFNRGECGGSDYKDDDDK
notes: From library F. Purified Fab in most assays

- binding result [20]: binds
B4: Fab DL06 AM Clone 24 (Fab)
heavy: EVQLVESGGGLVQPGGSLRLSCAASGFNISSSSIHWVRQAPGKGLEWVAYISSYYSSTYYADSVKGRFTISADTSKNTAYLQMNSLRAEDTAVYYCARTFCPPLMLFNPTTFQLEINAEAKYSFASTCGWAMDYWGQGTLVTVSSASTKGPSVFPLAPSSKSTSGGTAALGCLVKDYFPEPVTVSWNSGALTSGVHTFPAVLQSSGLYSLSSVVTVPSSSLGTQTYICNVNHKPSNTKVDKKVEPKSCDKTHT
light: DIQMTQSPSSLSASVGDRVTITCRASQSVSSAVAWYQQKPGKAPKLLIYSASSLYSGVPSRFSGSRSGTDFTLTISSLQPEDFATYYCQQWSYYPITFGQGTKVEIKRTVAAPSVFIFPPSDSQLKSGTASVVCLLNNFYPREAKVQWKVDNALQSGNSQESVTEQDSKDSTYSLSSTLTLSKADYEKHKVYACEVTHQGLSSPVTKSFNRGECGGSDYKDDDDK
notes: Purified Fab

More lines, now with the values behind:

B1: Recombinant EGF ligand (ligand, UniProt P01133 971-1023, looked up)
chain: NSDSECPLSHDGYCLHDGVCMYIEALDKYACNCVVGYIGERCQYRDLKWWELR
modifications: biotinylated with the N-hydroxysuccinimide ester of biotin in the ligand binding ELISA
notes: also called biotinylated EGF
- binding result [1]: binds

B3: Fab 8708 (Fab DL06 AM SR02) (Fab)
heavy: EVQLVESGGGLVQPGGSLRLSCAASGFNISSSSIHWVRQAPGKGLEWVAYISSYYSSTYYADSVKGRFTISADTSKNTAYLQMNSLRAEDTAVYYCARTYCPPLMRYNPTTYQMDVNPEAQYSFGATCGWAMDYWGQGTLVTVSSASTKGPSVFPLAPSSKSTSGGTAALGCLVKDYFPEPVTVSWNSGALTSGVHTFPAVLQSSGLYSLSSVVTVPSSSLGTQTYICNVNHKPSNTKVDKKVEPKSCDKTHT
light: B4 light
notes: Purified Fab in most assays; also called DL06 SR02; Fab DL06 SR02
- binding result [2]: no binding
- binding result [3]: no binding
- binding result [4]: no binding
- fold change of EC50 against EGFR [5]: < 3 fold
- fold change of EC50 against EGFR [6]: < 3 fold
- EC50 (read off the curve) [7]: ~6 nM
- EC50 (read off the curve) [8]: ~6 nM
- EC50 [9]: 8.2 nM
- fold enhancement in affinity against parent Fab DL06 [18]: 7 fold
- EC50 [11]: 23 nM
- EC50 [12]: 21 nM
- Kd [14]: 6.8 nM
- koff [14]: 5.6e-05 s⁻¹
- kon [14]: 7000 M⁻¹ s⁻¹
- binding result [15]: no binding
- binding result [16]: no binding
- binding result [17]: no binding (tested: 200 nM)
- IC50 [19]: ~30 nM

B5: Fab DL06 AM Clone 23 (Fab)
heavy: B4 heavy with L104I, P109A, T111S, Q113E, E115D, N117D, Y122F
light: B4 light
notes: Purified Fab
- binding result [21]: binds
